According to the RNAGym collection of RNA variant scans (doi:10.1073/pnas.2313332121):
Variants at the floor of the assay were thinned out.

B1: TPR 5TU (parent)
chain: GGAUCUUCUCGAUCUAACAAAAAAGACAAAUCUGCCACAAAGCUUGAGAGCAUCUUCGGAUGCAGAGGCGGCAGCCUUCGGUGGCGCGAUAGCGCCAACGUUCUCAACUAUGACACGCAAAACGCGUGCUCCGUUGAAUGGAGUUUAUCAUG

Variants of: B1
Assay: polymerase ribozyme fitness, log enrichment relative to wild type (log ratio); higher = more active; in vitro selection for triplet polymerase activity
Outline: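 Libraries of mutants in each subunit of a heterodimeric triplet polymerase ribozyme were generated by PCR and transcribed. In triplicate, each went through one in vitro selection round: annealing with biotinylated primer, partner subunit and triplets; frozen incubation at −7 °C; gel excision of extended constructs; streptavidin-bead capture; RT-PCR. Fitness, taken from Illumina sequencing of input and output libraries, is the logarithm of a genotype's enrichment over wild-type enrichment, averaged across replicates with inverse-variance weights. The logarithm is base 2, and genotypes needed ≥10 input reads and ≥1 read per output to be kept.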

Variant | polymerase ribozyme fitness (log ratio)
C87U C105G | -1.18
G88C A147C G152U | ≤ -4.2
G86U U102G A150U | -3.59
C87U A137G U148C | -3.87
A89U C103U A106C G117A | -2.14
C87U U109C | -3.46
A89U C93G A147U | -2.7
A91U C108A C114A C129A U146A | ≤ -4.2
C87U A122G | -1.83
A91G G143C | -3.43
G86U C125U | -2.02
C87A G88A G117A A119G | ≤ -4.2
C87A U151G | ≤ -4.2
C87G C105U U127C | -4.1
U90G G126U A147U | -3.95
A89U U102G A122C | -3.7
U90G G124C | ≤ -4.2
C87A A150G | ≤ -4.2
C87G A89U | ≤ -4.2
G88A C118A A120G | ≤ -4.2
C87A U90G U134G | ≤ -4.2
C87A C93A C95G A121U U127G G140A | ≤ -4.2
C87A A147G | ≤ -4.2
A91C A113G A138U | ≤ -4.2

Variant | polymerase ribozyme fitness (log ratio)
G86U U90G A98U G143C | ≤ -4.2
C87U G117C U144A | -1.27
A91U A97G | -3.67
C87U U90C U134A A138U G143A | ≤ -4.2
A89C C93U G136C | ≤ -4.2
C87U U102C | -1.21
A89C C99U C114U | -2.63
U90A A106C A121U | ≤ -4.2
A89U A97G U134A G141C | -3.84
C87U U101G A137C | -3.73
C87G G141C | -3.99
C87U A150G G152U | ≤ -4.2
A89G C99G C116A | -1.92
G88U U90C G133C A137C | ≤ -4.2
A89U A121U | -0.72
A89G A122C | -1.77
A91G C131A A137C G143C | ≤ -4.2
U90A C125G A147C U148C | -3.99
C87U A107U | -3.34
C87U C114G | -2.79
A91G U104G A115C | -4.06
A91U A106U G117A G136U | ≤ -4.2
U90G C93G C99U | ≤ -4.2
G88C A115U G117U C131G U135G | ≤ -4.2

Variant | polymerase ribozyme fitness (log ratio)
A91U C108U A113U C118U C149G | ≤ -4.2
G86U C108U | -4.14
A89U C99G G126A C132G | -4.08
A91C A107U | ≤ -4.2
G86U U104G C116A | -2.52
C87U C118U G143C | -2.54
C87U G117A | -0.356
C87U C108U | -3.61
A91G U127A | ≤ -4.2
C87A A138C | ≤ -4.2
C87U A142G | -0.623
C87U C116A | 1.21
C87A G141A | -3.89
C87A G141U | -3.64
A89U C123U | 0.89
G88U C99U | -4.12
G88U C99A | -4.1
U90C | -2.87
U90G | ≤ -4.2
U90A | -4.07
C87U A137G | -1.81
C87U A137C | -3.99
G86U G88A A150C | ≤ -4.2
C87G A106G | -4

Variant | polymerase ribozyme fitness (log ratio)
A91U G141A | -4.05
C87U A150C | -3.7
A91G G100U A113U A120G C125A U139G | ≤ -4.2
A89C C123A G128U | -3.31
C87G A110C U146G C149A | ≤ -4.2
U90G A97G C114U U139G | ≤ -4.2
A91G C96U A106G | -2.5
A89C A97U U101G A110G U134G G141A | ≤ -4.2
G88C A97U C103A G128C U134C U146C | ≤ -4.2
C87U A97U | -2.25
A91C U109G G140U | ≤ -4.2
C87G C149U | ≤ -4.2
A91U G128A U139C A150U | ≤ -4.2
G88C C105G G128C A142C | ≤ -4.2
G88A C149U | -4.04
A89C U148C | -3.51
A91G G126A G141A | -3.67
A91U A142U | -3.67
A91C | ≤ -4.2
A91G | -2.77
G88C C114U G141U | ≤ -4.2
A89C C96U A97C C99U | -3.09
C87G C105U A137C A150U | ≤ -4.2
C87A A107C U139C U151A | ≤ -4.2

Variant | polymerase ribozyme fitness (log ratio)
G88A A98U A106C | ≤ -4.2
C87U G143U | -2.69
A91C G152U | ≤ -4.2
A89C C125A | -1.13
A89U G141C | -0.255
C87U C105G A121U A122U | -1.19
G88U G141U | -3.23
A91G C116G | -1.65
U90C A147U | -3.58
A89G C95G C132U | -3.36
A91C C95U C103G C116G | ≤ -4.2
U90A C99U C103G G140A | ≤ -4.2
A91G A120G | -2.98
C87U C118G | -1.33
A91G A106G | -1.93
G88A G94A C99G C103G U104A A107G | ≤ -4.2
C87U C93G A121U C132A | ≤ -4.2
A91G A121U | -3.01
C87U C103U | -0.658
C87U C103G | -2.13
A91G C118U A121U A122U G124A | -3.56
C87G A98U | -3.64
C87G A98G | ≤ -4.2
G88U C108A | ≤ -4.2

Variant | polymerase ribozyme fitness (log ratio)
C87A G100U | ≤ -4.2
C87A G140C | ≤ -4.2
G88C C93G U102C G124A | ≤ -4.2
A89G A98U | -1.66
G88C G100C A106G U146C | ≤ -4.2
C87U A120G A121C A147U U148C | -2.38
U90G G94U A106U | ≤ -4.2
G88A U144G | -3.35
A91C G112C U146A | ≤ -4.2
A89U U109G | -0.917
U90A G92C A142G | ≤ -4.2
C87U G88U | ≤ -4.2
C87U G94C | -2.05
C87U C129A | -2.76
A91U C114U U148G | ≤ -4.2
C87U A106G | -0.549
A91C A120C | ≤ -4.2
G86U C118U | -1.69
A91G C95G | -3.67
U90A C95U A121U U127A | ≤ -4.2
G86U U90G C103A A119C A121C A138C | ≤ -4.2
C87A U101G G124A A142C | -4.02
A91G U130G | ≤ -4.2
A91G G92A C125G C129G A137G | ≤ -4.2

Variant | polymerase ribozyme fitness (log ratio)
C87A C125U A137U | ≤ -4.2
A89C C96U | -1.26
C87A A91G | ≤ -4.2
A89U A150U | 1.51
A89U A150G | -0.42
C87G U104G | ≤ -4.2
C87A A115C | -4.1
A89C C96A A115G | -2.74
U90C C99U | ≤ -4.2
G88U G117U A142C | ≤ -4.2
A91U A147G | ≤ -4.2
G86U C96A | -2.89
C87U U90C C99G | -3.53
A89C C93G C96U U148G | ≤ -4.2
C87A A107C | ≤ -4.2
A91G G92U | -2.31
G86U G143A | -2.53
C87U A98G | -1.67
C87U A98C | -1.07
G88A A91C | ≤ -4.2
C87G G152U | -3.57
G88A C105A A147C U151G | ≤ -4.2
U90C C95A U102A C132A | ≤ -4.2
